Paper PMC12112590

Target: S. cerevisiae RNA Polymerase II (Pol II) (S. cerevisiae) (UniProt P04050)

Binder | transcription stimulation with calf thymus DNA and yeast Pol II ([α-32P]CTP incorporation), against wild-type hNDF [% reduction]
full-length hNDF mutant MT1 (natural protein) MAAVSLRLGDLVWGKLGRYPPWPGKIVNPPKDLKKPRGKKCFFVKFFGTEDHAWIKVEQLKPYHAHKEEMIKINKGKRFQQAVDAVEEFLRRAKGKDQTSSHNSSDDKNRRNSSEERSRPNSGDEKRKLSLSEGKVKKNMAAAAARVSSGSSERGSKSPLKRAQEQSPRKRGRPPKDEKDLTIPESSTVKGMMAGPMAAFKWQPTASEPVKDADPHFHHFLLSQTEKPAVCYQAITKKLKICEEETGSTSIQAADSTAVNGSITPTDKKIGFLGLGLMGSGIVSNLLKMGHTVTVWNRTAEKCDLFIQEGARLGRTPAEVVSTCDITFACVSDPKAAKDLVLGPSGVLQGIRPGKCYVDMSTVDADTVTELAQVIVSRGGRFLEAPVSGNQQLSNDGMLVILAAGDRGLYEDCSSCFQAMGKTSFFLGEVGNAAKMMLIVNMVQGSFMATIAEGLTLAQVTGQSQQTLLDILNQGQLASIFLDQKCQNILQGNFKPDFYLKYIQKDLRLAIALGDAVNHPTPMAAAANEVYKRAKALDQSDNDMSAVYRAYIH | 50
full-length hNDF mutant MT3 (natural protein) MAAVSLRLGDLVWGKLGRYPPWPGKIVNPPKDLKKPRGKKCFFVKFFGTEDHAWIKVEQLKPYHAHKEEMIKINKGKRFQQAVDAVEEFLRRAKGKDQTSSHNSSDDKNRRNSSEERSRPNSGDEKRKLSLSEGKVKKNMGEGKKRVSSGAAAAASKSPLKRAQEQSPRKRGRPPKDEKDLTIPESSTVKGMMAGPMAAFKWQPTASEPVKDADPHFHHFLLSQTEKPAVCYQAITKKLKICEEETGSTSIQAADSTAVNGSITPTDKKIGFLGLGLMGSGIVSNLLKMGHTVTVWNRTAEKCDLFIQEGARLGRTPAEVVSTCDITFACVSDPKAAKDLVLGPSGVLQGIRPGKCYVDMSTVDADTVTELAQVIVSRGGRFLEAPVSGNQQLSNDGMLVILAAGDRGLYEDCSSCFQAMGKTSFFLGEVGNAAKMMLIVNMVQGSFMATIAEGLTLAQVTGQSQQTLLDILNQGQLASIFLDQKCQNILQGNFKPDFYLKYIQKDLRLAIALGDAVNHPTPMAAAANEVYKRAKALDQSDNDMSAVYRAYIH | 50
full-length hNDF mutant MT2 (residues 146–150) (natural protein) MAAVSLRLGDLVWGKLGRYPPWPGKIVNPPKDLKKPRGKKCFFVKFFGTEDHAWIKVEQLKPYHAHKEEMIKINKGKRFQQAVDAVEEFLRRAKGKDQTSSHNSSDDKNRRNSSEERSRPNSGDEKRKLSLSEGKVKKNMGEGKKAAAAASSERGSKSPLKRAQEQSPRKRGRPPKDEKDLTIPESSTVKGMMAGPMAAFKWQPTASEPVKDADPHFHHFLLSQTEKPAVCYQAITKKLKICEEETGSTSIQAADSTAVNGSITPTDKKIGFLGLGLMGSGIVSNLLKMGHTVTVWNRTAEKCDLFIQEGARLGRTPAEVVSTCDITFACVSDPKAAKDLVLGPSGVLQGIRPGKCYVDMSTVDADTVTELAQVIVSRGGRFLEAPVSGNQQLSNDGMLVILAAGDRGLYEDCSSCFQAMGKTSFFLGEVGNAAKMMLIVNMVQGSFMATIAEGLTLAQVTGQSQQTLLDILNQGQLASIFLDQKCQNILQGNFKPDFYLKYIQKDLRLAIALGDAVNHPTPMAAAANEVYKRAKALDQSDNDMSAVYRAYIH | 50
full-length hNDF mutant MT4 (residues 156–160) (natural protein) MAAVSLRLGDLVWGKLGRYPPWPGKIVNPPKDLKKPRGKKCFFVKFFGTEDHAWIKVEQLKPYHAHKEEMIKINKGKRFQQAVDAVEEFLRRAKGKDQTSSHNSSDDKNRRNSSEERSRPNSGDEKRKLSLSEGKVKKNMGEGKKRVSSGSSERGAAAAAKRAQEQSPRKRGRPPKDEKDLTIPESSTVKGMMAGPMAAFKWQPTASEPVKDADPHFHHFLLSQTEKPAVCYQAITKKLKICEEETGSTSIQAADSTAVNGSITPTDKKIGFLGLGLMGSGIVSNLLKMGHTVTVWNRTAEKCDLFIQEGARLGRTPAEVVSTCDITFACVSDPKAAKDLVLGPSGVLQGIRPGKCYVDMSTVDADTVTELAQVIVSRGGRFLEAPVSGNQQLSNDGMLVILAAGDRGLYEDCSSCFQAMGKTSFFLGEVGNAAKMMLIVNMVQGSFMATIAEGLTLAQVTGQSQQTLLDILNQGQLASIFLDQKCQNILQGNFKPDFYLKYIQKDLRLAIALGDAVNHPTPMAAAANEVYKRAKALDQSDNDMSAVYRAYIH | 50
